{"source": "patent US20160091498A1", "about": "(H LEE MOFFITT CANCER CENTER AND RESEARCH INSTITUTE, published 2016)", "binders": {"B1": {"name": "H2B(25-49) (peptide)", "peptide": "DGKKRKRSRKESYSVYVYKVLKQVH-{Biotin′}", "notes": "also called unphosphorylated H2B; human histone H2B peptide spanning amino acids 25-49"}}, "biological_target": "T1, NPAT (UniProt Q14207 1-1427)", "T1 construct": "other lysate proteins were present", "T1 sequence (looked up)": "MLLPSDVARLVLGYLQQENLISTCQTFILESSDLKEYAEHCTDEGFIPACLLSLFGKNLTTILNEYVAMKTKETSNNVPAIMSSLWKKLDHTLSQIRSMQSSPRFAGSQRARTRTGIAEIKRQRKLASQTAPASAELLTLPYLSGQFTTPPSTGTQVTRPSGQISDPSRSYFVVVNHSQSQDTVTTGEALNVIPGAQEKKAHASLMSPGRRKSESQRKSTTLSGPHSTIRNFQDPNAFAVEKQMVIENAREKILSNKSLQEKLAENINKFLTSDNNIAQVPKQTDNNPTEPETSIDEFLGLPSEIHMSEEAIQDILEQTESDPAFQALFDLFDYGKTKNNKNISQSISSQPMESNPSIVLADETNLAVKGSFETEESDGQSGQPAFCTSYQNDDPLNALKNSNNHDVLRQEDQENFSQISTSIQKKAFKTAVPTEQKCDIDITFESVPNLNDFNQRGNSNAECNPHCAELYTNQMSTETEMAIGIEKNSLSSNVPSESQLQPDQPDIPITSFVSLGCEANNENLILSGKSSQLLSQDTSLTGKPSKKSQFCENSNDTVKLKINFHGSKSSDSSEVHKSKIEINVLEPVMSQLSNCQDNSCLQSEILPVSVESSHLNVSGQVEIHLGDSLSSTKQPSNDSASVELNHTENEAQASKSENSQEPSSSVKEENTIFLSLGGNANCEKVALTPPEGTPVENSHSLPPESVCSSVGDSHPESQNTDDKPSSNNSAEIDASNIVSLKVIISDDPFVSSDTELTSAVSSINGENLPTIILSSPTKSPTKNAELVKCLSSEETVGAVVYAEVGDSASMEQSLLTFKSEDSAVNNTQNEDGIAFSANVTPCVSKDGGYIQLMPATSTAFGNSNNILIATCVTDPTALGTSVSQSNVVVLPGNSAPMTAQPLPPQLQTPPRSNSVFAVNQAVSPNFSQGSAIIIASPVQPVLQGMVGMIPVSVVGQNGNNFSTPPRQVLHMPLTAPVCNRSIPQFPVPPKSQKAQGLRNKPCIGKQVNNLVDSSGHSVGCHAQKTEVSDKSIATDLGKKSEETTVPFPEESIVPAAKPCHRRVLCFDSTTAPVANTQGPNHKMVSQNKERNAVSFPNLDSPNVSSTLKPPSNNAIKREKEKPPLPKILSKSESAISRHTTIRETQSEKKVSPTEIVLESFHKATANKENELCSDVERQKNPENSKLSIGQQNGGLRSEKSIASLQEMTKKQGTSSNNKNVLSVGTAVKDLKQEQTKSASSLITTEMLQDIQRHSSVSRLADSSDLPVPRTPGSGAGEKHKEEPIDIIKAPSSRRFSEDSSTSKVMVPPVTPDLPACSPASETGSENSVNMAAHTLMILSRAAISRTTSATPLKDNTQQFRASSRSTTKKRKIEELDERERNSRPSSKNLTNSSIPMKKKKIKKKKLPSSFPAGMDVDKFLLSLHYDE", "assay": "filter binding: peptide on nitrocellulose, HEK293 lysate, NPAT immunoblot", "note": "Primed or numbered codes have the meaning given here. No end group written: not given here. Biotin′ = not defined here", "data": [{"binder": "B1", "values": [{"measurement": "binding result", "result": "binds"}]}]}
